# B1: OtUBD (ubiquitin binding domain of an effector protein of Orientia tsutsugamushi), native unmodified domain (other)
# chain: VNFLSENRMITSAAAALADTLLKNNNRITEGVLVDRIFDNKILSVQEKQQLLNNLLDNHIKENKSLTKESLTRMLASTHFVQQQANVLLNEKFNK
# notes: also called OtUDB
# Biological target: T1, ubiquitin (single molecule, mono-ubiquitin) (Homo sapiens (Human), UniProt P0CG47 1-76)
# T1 construct: also called one ubiquitin
# Assay: isothermal titration calorimetry, one OtUBD to one ubiquitin
binder,measurement,value
B1,Kd,5.3 nM
